# Columns and labels:
# [1] = target: β10-S-β10 (SARS-CoV-2) (UniProt P0DTC2); test: tNLuc assay (β9-G/β10-S-β10); CR3022 dose response with 0-100 µg/mL human IgG, allosteric noncompetitive inhibition model
# [2] = target: β10-S (SARS-CoV-2) (UniProt P0DTC2); test: tNLuc split-luciferase assay in solution with β9-G; CR3022 dose response, allosteric sigmoidal fit
# [3] = target: β10-S-β10 (SARS-CoV-2) (UniProt P0DTC2); test: as above
substance,measurement,setting,value
CR3022 (antibody),Kd,[1],0.22 µg/mL
same,Kd,[2],0.42 µg/mL
same,Kd,[3],0.23 µg/mL
